Measurements published in US20080044417A1 (MacroGenics, published 2008).

T1: FcγRIIB (CD32B) on Daudi cells (human, UniProt P31994 43-310)
T1 construct: whole, on cells; also called human B cell tumor line
T1 sequence (looked up): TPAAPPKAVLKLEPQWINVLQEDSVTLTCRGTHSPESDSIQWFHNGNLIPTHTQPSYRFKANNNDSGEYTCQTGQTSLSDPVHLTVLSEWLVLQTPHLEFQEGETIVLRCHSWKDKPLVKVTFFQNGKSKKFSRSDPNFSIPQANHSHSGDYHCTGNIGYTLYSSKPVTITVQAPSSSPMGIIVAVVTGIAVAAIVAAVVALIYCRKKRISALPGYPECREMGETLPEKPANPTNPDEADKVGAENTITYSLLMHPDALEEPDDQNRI

T2: soluble FcγIIA (UniProt P12318 34-217)
T2 construct: also called dimeric soluble FcγRIIa-Fc; FcγRIIA; not shown: the p
T2 sequence (looked up): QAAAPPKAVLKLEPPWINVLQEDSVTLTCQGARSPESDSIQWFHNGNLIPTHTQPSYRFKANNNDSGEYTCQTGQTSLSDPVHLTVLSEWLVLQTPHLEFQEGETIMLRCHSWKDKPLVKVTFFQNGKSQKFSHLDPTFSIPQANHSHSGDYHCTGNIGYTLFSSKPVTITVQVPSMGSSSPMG


Key:
[1] = molecular target: T1, FcγRIIB (CD32B) on Daudi cells; assay: FACS on Daudi cells, primary antibody 0.1 ug/ml, PE anti-human IgG Fc secondary
[2] = molecular target: T1, FcγRIIB (CD32B) on Daudi cells; assay: FACS on Daudi cells, primary antibody 0.5 µg/ml, PE anti-human IgG Fc secondary
Method: (§1) Protocol for FACS analysis. Approximately 10⁶ Daudi cells were used for each antibody staining. Cells were washed once with PBS. Primary antibodies (Ch2B6, Hu2B6Hc/ch2B6Lc, human IgG1) were diluted into 0.5, 0.1, 0.02 μg/mL in PBS/1% BSA and 100 μL of diluted antibodies was transferred to the cells. After 30 mins incubation at 4° C., cells were washed once with 1 mL PBS/1% BSA. PE conjugated F(ab′)₂ fragment of goat anti human IgG Fc specific (Jackson ImmunoReseach, Inc.) was used as secondary antibody at 1:1000 dilution. After 30 mins incubation at 4° C., cells were washed once with 1 mL PBS/1% BSA. The cells were then resuspended in 500 μL of PBS/1% BSA and subjected to be FACS analysis.
(§2) Transfections of HEK-293 cells were performed using the following combinations: hu2B6HC/hu2B6LC; hu2B6HC/hu2B6LC(N50Y); hu2B6HC/hu2B6LC(N50Y,V51A); ch2B6HC/ch2B6LC. After three days in culture the amount of human IgG expressed was quantitated by an ELISA assay, using the method described above. Binding to dimeric soluble FcγRIIb-Fc was determined by ELISA assay. […] FACS analysis was then performed to measure the binding of the mAbs to Daudi cells (Table 8).

[3] = molecular target: T1, FcγRIIB (CD32B) on Daudi cells; assay: FACS on Daudi cells, primary antibody 0.02 µg/ml, PE anti-human IgG Fc secondary
Method: as §1, §2

[4] = molecular target: T1, FcγRIIB (CD32B) on Daudi cells; assay: FACS on Daudi cells, primary antibody 0.1 µg/ml, PE anti-human IgG Fc secondary
Method: as §1, §2

[5] = molecular target: T1, FcγRIIB (CD32B) on Daudi cells; assay: FACS on Daudi cells, primary antibody 0.02 ug/ml, PE anti-human IgG Fc secondary
[6] = molecular target: T1, FcγRIIB (CD32B) on Daudi cells; assay: FACS on Daudi cells, primary antibody 0.5 ug/ml, PE anti-human IgG Fc secondary
soluble FcγIIA = molecular target: T2, soluble FcγIIA; assay: ELISA, 100 ng/well soluble FcγIIA coated
Method: Protocol for ELISA assay: 100 ng/well of soluble FcγIIA in carbonate buffer was coated on 96-well Maxisorp plates at 4° C. overnight. A serial of two-fold dilution of conditioned medium of Ch2B6; hu2B6HC/hu2B6LC; hu2B6HC/hu2B6LC(N50Y); hu2B6HC/hu2B6LC(N50Y,V51A); and purified IV.3 starting from 25 ng/well was added to the each well. The plate was incubated at room temperature for 1 hour. The binding was detected by HRP conjugated F(ab′)2 goat anti human IgG F(ab′)2 specific secondary antibody for Ch2B6 and all hu2B6 samples and HRP conjugated F(ab′)2 goat anti mouse IgG (H+L) secondary antibody for IV.3. After incubation with the secondary antibody for approximately 45 minutes, the plate was developed using a TMB substrate. After 5 mins incubation, the reaction was stopped by 1% H₂SO₄. The OD₄₅₀ nm was ready by SOFTmax program. Between each step, the plates were washed 3 times with PBS/0.1% Tween 20. The plates were blocked by 0.5% BSA in PBS/0.1% Tween 20 for 30 mins at room temperature before adding the serial diluted antibodies.

Row | Mean Fluorescence [1] | Mean Fluorescence [2] | Mean Fluorescence ([2]; record 2) | Mean Fluorescence [3] | Mean Fluorescence ([3]; record 2) | Mean Fluorescence [4] | Mean Fluorescence ([4]; record 2) | Mean Fluorescence [5] | Mean Fluorescence [6] | binding result (soluble FcγIIA) | Molecule
1 | 515 | 193 | 647 | 45.6 | 173 | 141 | 512 | 168 | 552 | – | ch2B6 monoclonal antibody (ch2B6HC/ch2B6LC)
2 | – | 9.49 | 1.23 | – | – | – | – | – | 6.07 | – | Human IgG1 (antibody)
3 | – | 191 | – | 40.1 | – | 135 | – | – | – | no binding | hu2B6HC/hu2B6LC(N50Y) (antibody, V domains shown, Human IgG; HEK-293 conditioned medium; also called Hu2B6 N50Y; Hu2B6N50Y) VH: QVQLVQSGAEVKKPGASVKVSCKASGYTFTNYWIHWVRQAPGQGLEWMGVIDPSDTYPNYNKKFKGRVTMTTDTSTSTAYMELRSLRSDDTAVYYCARNGDSDYYSGMDYWGQGTTVTVSS VL: EIVLTQSPDFQSVTPKEKVTITCRTSQSIGTNIHWYQQKPDQSPKLLIKYVSESISGVPSRFSGSGSGTDFTLTINSLEAEDAATYYCQQSNTWPFTFGGGTKVEIK
4 | – | 167 | – | 46 | – | 134 | – | – | – | no binding | hu2B6HC/hu2B6LC(N50Y,V51A) (antibody, V domains shown, Human IgG; HEK-293 conditioned medium; also called Hu2B6N50Y, V51A; Hu2B6N50Y,V51A) VH: QVQLVQSGAEVKKPGASVKVSCKASGYTFTNYWIHWVRQAPGQGLEWMGVIDPSDTYPNYNKKFKGRVTMTTDTSTSTAYMELRSLRSDDTAVYYCARNGDSDYYSGMDYWGQGTTVTVSS VL: EIVLTQSPDFQSVTPKEKVTITCRTSQSIGTNIHWYQQKPDQSPKLLIKYASESISGVPSRFSGSGSGTDFTLTINSLEAEDAATYYCQQSNTWPFTFGGGTKVEIK
5 | – | 202 | – | 58.6 | – | 174 | – | – | – | no binding | hu2B6HC/hu2B6LC monoclonal antibody (antibody, V domains shown, Human IgG (appropriate constant region segments); HEK-293 conditioned medium; also called humanized 2B6) VH: QVQLVQSGAEVKKPGASVKVSCKASGYTFTNYWIHWVRQAPGQGLEWMGVIDPSDTYPNYNKKFKGRVTMTTDTSTSTAYMELRSLRSDDTAVYYCARNGDSDYYSGMDYWGQGTTVTVSS VL: EIVLTQSPDFQSVTPKEKVTITCRTSQSIGTNIHWYQQKPDQSPKLLIKNVSESISGVPSRFSGSGSGTDFTLTINSLEAEDAATYYCQQSNTWPFTFGGGTKVEIK
